Legend:
OVCAR5 tumor xenografts = assay: Subcutaneous OVCAR5 xenograft efficacy study; type: in vivo, SCID mice
Description: (§1) OVCAR5 (FIG. 26A and FIG. 26B), TOV-21 G (FIG. 26C and FIG. 26D), HPAC (FIG. 26E and FIG. 26F), and HeLa (FIG. 26G and FIG. 26H) cells were inoculated on day 0, and immunoconjugate treatments were given on day 6 and 13. PBS control animals were euthanized once tumor volumes exceeded 1000 mm^3. The conjugate was given at a dose of 600 μg/kg DM1, corresponding to an antibody concentration 27.7 mg/kg. Tumor volume (FIG. 26A, FIG. 26C, FIG. 26E, and FIG. 26G) and body weight (FIG. 26B, FIG. 26D, FIG. 26F, and FIG. 26H) of the mice were monitored during the course of the study.
(§2) muDS6-DM 1 activity was further tested on a panel of subcutaneous xenograft models (see FIG. 26). […] OVCAR5 cells and TOV-21 G are ovarian tumor cell lines; HPAC is a pancreatic tumor cell line; HeLa is a cervical tumor cell line. OVCAR5 and TOV-21G cells have low surface CA6 expression; HeLa cells have an intermediate level of surface CA6 expression; HPAC cells have a high CA6 density of surface expression. TOV-21G and HPAC cells are maytansine sensitive; OVCAR5 and HeLa cells are 2-7-fold less maytansine sensitive.
The 4 cell-lines were grown in vitro, collected, and 1×10^7 cells in a 100 μL of serum free medium were injected under the right shoulder of each mouse (6 mice per model) and allowed to grow for 6 days to an average tumor volume of 57.6±6.7 and 90.2±13.4 mm^3 for the test and control groups respectively of OVCAR5, 147.1±29.6 and 176.2±18.9 mm^3 for the test and control groups respectively of HPAC, 194.3±37.2 and 201.7±71.7 mm^3 for the test and control groups respectively of HeLa, and 96.6±22.8 and 155.6±13.4 mm^3 for the test and control groups respectively of TOV-21G, at which time drug treatment was initiated. For each model three control mice were treated with two weekly doses of PBS and three test mice were treated with two weekly doses of conjugate (600 μg/kg DM1) intravenously. Toxic responses were monitored daily during the treatment and tumor volumes and body weights were monitored throughout the study. […] The HeLa model had about a 3 week lag period before beginning exponential growth. […] For the TOV-21 G, HPAC, and HeLa models the mice remain tumor-free at day 61. In the OVCAR5 model tumors recurred at about day 45 after tumor inoculation. Thus, muDS6-DM1 treatment in this model results in a tumor growth delay of approximately 34 days. The growth delay is significant as OVCAR5 cells are less maytansine-sensitive and have low CA6 epitope expression. In models where either the CA6 epitope density is higher or the model has greater maytansine sensitivity, the tumor regression is more robust. It is important to note that only 2 doses were administered. […] It is likely that cures could be achieved with additional or higher conjugate doses.

Caov-3 cells = assay: Flow cytometry binding assay; parameters: species or system human
Description: Flow cytometric analysis was used to localize the DS6 epitope, CA6, to the cell surface. Human cell lines were obtained from the American Type Culture Collection (ATCC) with the exception of OVCAR5 (Kearse et al., Int. J. Cancer 88(6):866-872 (2000)), OVCAR8 and IGROV1 cells (M. Seiden, Massachusetts General Hospital). All cells were grown in RPMI 1640 supplemented with 4 mM L-glutamine, 50 U/ml penicillin, 50 μg/ml streptomycin (Cambrex Bio Science, Rockland, Me.) and 10% v/v fetal bovine serum (Atlas Biologicals, Fort Collins, Colo.), referred hereafter as culture media. Cells were maintained in a 37° C., 5% CO2 humidified incubator.
Cells ([…]) were incubated, on ice for 3-4 h, with serially diluted concentrations of the DS6 antibody prepared in FACS buffer (2% goat serum, RPMI) into 96-well plates. […] After two washes, the cells were fixed with 1% formaldehyde and analyzed on a flow cytometer.
The muDS6 antibody (8 mg/ml) was modified using 8-fold molar excess of N-succinimidyl-4-(2-pyridyldithio) pentanoate (SPP) to introduce dithiopyridyl groups. […] The degree of modification was determined by measuring the absorbance of the antibody at 280 nm and the DTT released 2-mercaptopyridine (Spy) at 280 and 343 nm. […] The number of DM1 molecules linked per molecule of muDS6 was determined by measuring the absorbance at both 252 nm and 280 nm of the filtered material. […]

HeLa tumor xenografts = assay: Subcutaneous HeLa xenograft efficacy study; type: in vivo, SCID mice
Description: as §1, §2
The 4 cell-lines were grown in vitro, collected, and 1×10^7 cells in a 100 μL of serum free medium were injected under the right shoulder of each mouse (6 mice per model) and allowed to grow for 6 days to an average tumor volume of 57.6±6.7 and 90.2±13.4 mm^3 for the test and control groups respectively of OVCAR5, 147.1±29.6 and 176.2±18.9 mm^3 for the test and control groups respectively of HPAC, 194.3±37.2 and 201.7±71.7 mm^3 for the test and control groups respectively of HeLa, and 96.6±22.8 and 155.6±13.4 mm^3 for the test and control groups respectively of TOV-21G, at which time drug treatment was initiated. For each model three control mice were treated with two weekly doses of PBS and three test mice were treated with two weekly doses of conjugate (600 μg/kg DM1) intravenously. Toxic responses were monitored daily during the treatment and tumor volumes and body weights were monitored throughout the study. […]

[1] = 600 μg/kg DM1, two weekly doses
[2] = 600 μg/kg DM1 i.v., two weekly doses

B1: DS6-DM1: muDS6 antibody modified with SPP and conjugated to the maytansinoid DM1 (conjugate)
VH: QAYLQQSGAELVRSGASVKMSCKASGYTFTSYNMHWVKQTPGQGLEWIGYIYPGNGATNYNQKFKGKATLTADPSSSTAYMQISSLTSEDSAVYFCARGDSVPFAYWGQGTLVTVSA
VL: QIVLTQSPAIMSASPGEKVTITCSAHSSVSFMHWFQQKPGTSPKLWIYSTSSLASGVPARFGGSGSGTSYSLTISRMEAEDAATYYCQQRSSFPLTFGAGTKLELKR
Question: Which results are given for B1?
Answer: body weight (OVCAR5 tumor xenografts; [1]): no weight loss was observed; day of tumor recurrence after tumor inoculation (OVCAR5 tumor xenografts; [1]): ~45 days; tumor growth delay (OVCAR5 tumor xenografts; [1]): approximately 34 days; tumor regression (OVCAR5 tumor xenografts; [2]): complete tumor regression in all mice; effect of conjugation on binding affinity (Caov-3 cells; Caov-3 cells, versus unmodified muDS6): only a slight loss of affinity; body weight (HeLa tumor xenografts; [1]): no weight loss was observed; tumor status at day 61 (HeLa tumor xenografts; [1]): tumor-free; tumor regression (HeLa tumor xenografts; [2]): complete tumor regression in all mice

B2: DS6: murine anti-CA6 monoclonal antibody DS6 (ATCC deposit number PTA-4449) (antibody, V domains shown)
VH: QAYLQQSGAELVRSGASVKMSCKASGYTFTSYNMHWVKQTPGQGLEWIGYIYPGNGATNYNQKFKGKATLTADPSSSTAYMQISSLTSEDSAVYFCARGDSVPFAYWGQGTLVTVSA
VL: QIVLTQSPAIMSASPGEKVTITCSAHSSVSFMHWFQQKPGTSPKLWIYSTSSLASGVPARFGGSGSGTSYSLTISRMEAEDAATYYCQQRSSFPLTFGAGTKLELKR
Question: How did the “MMF (average maximum relative mean fluorescence)” value (Caov-3 cells; Caov-3) turn out when B2 was run?
Answer: The value was 465.20.

Reference: patent publication US8987424B2, “CA6 antigen-specific cytotoxic conjugate and methods of using the same” (ImmunoGen, Inc., priority 2003, dated 2015)
